Assay results: paper PMC8568920, “Serum apolipoprotein A-I potentiates the therapeutic efficacy of lysocin E against Staphylococcus aureus” (Nature Communications, 2021)

System: S. aureus
Assay: Lysocin E antimicrobial activity-enhancing activity (1 unit decreases the MIC of lysocin E to 1 µg ml−1)
Type: cell-based, Staphylococcus aureus
Conditions: ApoA species
Method: Calf serum (10 ml) was added to 15 ml EtOH (60% v/v) and the mixture was centrifuged for 15 min. The collected supernatant was evaporated and suspended in 8 ml Milli-Q water (fraction [fr.] II). Fr. II with formic acid (0.1%) was applied to 10 ml of ODS resin (Waters Corporation, Milford, MA, USA). After washing with 25% EtOH and then 50% EtOH, the resin was eluted with 75% EtOH containing 0.1% formic acid. The eluted sample was evaporated and dissolved in 0.8 ml buffer A (10 mM phosphate buffer [pH 7.1], 6 M urea; Fr. III). Fr. III was applied to the Superose 12 10/300 GL gel filtration column (GE Healthcare) and eluted with the AKTApurifier system (GE Healthcare). The elution was performed in buffer A at a flow rate of 0.5 ml min^−1 and 60 fractions (0.5 ml per fr.) were collected in 2-ml tubes. All fractions, except for Fr. I, were dialysed in 10 mM phosphate buffer (pH 7.1) before assessment of their activities. Protein concentrations were measured using Coomassie Plus^TM protein assay reagent (Thermo Fisher) with bovine serum albumin as the standard. Amino acid sequence analysis was performed by in-gel digestion and mass spectrometric analysis. One unit was defined as the activity that decreases the MIC of lysocin E to 1 µg ml^−1.

B1: rmApoA-I: recombinant mouse ApoA-I (protein, UniProt Q00623 25-264, looked up)
Apolipoprotein A-I: DEPQSQWDKVKDFANVYVDAVKDSGRDYVSQFESSSLGQQLNLNLLENWDTLGSTVSQLQERLGPLTRDFWDNLEKETDWVRQEMNKDLEEVKQKVQPYLDEFQKKWKEDVELYRQKVAPLGAELQESARQKLQELQGRLSPVAEEFRDRMRTHVDSLRTQLAPHSEQMRESLAQRLAELKSNPTLNEYHTRAKTHLKTLGEKARPALEDLRHSLMPMLETLKTQVQSVIDKASETLTAQ
  Specific activity for lysocin E antimicrobial enhancing activity: 6400 unit mg-1 protein
